Test results from US20220088057.

System: GST-fusion SMAD3 protein (Sigma-Aldrich Co. LLC.)

**Q.** With “His-fusion NEK6 protein (Eurofins Scientific SE)” as the substance, how does the “amount of phosphorylated SMAD3 (Western blot after in vitro kinase reaction of purified proteins with ATP)” value read?
**A.** By using NEK6 protein, the amount of phosphorylated SMAD3 was elevated
